Patent publication US20220119534A1 (DRAGONFLY THERAPEUTICS, published 2022)
Where a chain is given by its changes, count along the chain named. Names and notes keep the numbering of the source. Values joined by “and” are separate entries in the source; they are usually repeats but may differ in a detail not shown here. Equal values may be shown once. Read-outs that look alike come from different tables or passages of the source.

Key:
Human CLEC12A-His [1] = target: T1, Human CLEC12A-His (human, UniProt Q5QGZ9 65-265); assay: SPR Biacore 8K 37 C; TriNKET captured on anti-hFc chip, hCLEC12A-His as analyte; 1:1 fit; control sample, n=2
T1 construct: Recombinant soluble protein made in house (Dragonfly Tx); The hCLEC12A spot of the HuProt array is written under this molecule as well; also called hCLEC12A-His; hCLEC12A; not shown: His tag
T1 sequence: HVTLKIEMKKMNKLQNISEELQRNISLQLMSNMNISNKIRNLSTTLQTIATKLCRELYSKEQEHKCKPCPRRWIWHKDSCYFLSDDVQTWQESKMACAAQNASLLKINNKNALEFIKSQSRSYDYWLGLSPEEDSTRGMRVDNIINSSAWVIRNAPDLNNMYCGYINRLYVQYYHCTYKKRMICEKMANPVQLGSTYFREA

mFc-hNKG2D [2] = target: T2, mFc-hNKG2D (human, UniProt P26718 73-216); assay: SPR Biacore 8K 37 C; mFc-hNKG2D captured on anti-mFc chip, TriNKET as analyte; 1:1 kinetic fit; after 4 wks 40 C in HST pH 6.0
T2 construct: extracellular domain; Made in house (Dragonfly Tx); the order of tag and ECD follows the name mFc-hNKG2D; also called mFc-tagged human NKG2D; not shown: mouse Fc tag
T2 sequence (looked up): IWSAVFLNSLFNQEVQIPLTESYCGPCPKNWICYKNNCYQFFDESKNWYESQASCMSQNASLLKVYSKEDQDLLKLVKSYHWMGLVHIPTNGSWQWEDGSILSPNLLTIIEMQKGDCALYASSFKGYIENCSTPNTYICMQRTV

[3] = target: T3, mFc-hNKG2D (recombinant mFc-tagged human NKG2D dimer) (human, UniProt P26718 73-216); assay: SPR; control sample
T3 construct: extracellular domain; Made in house; not shown: mouse Fc tag
T3 sequence (looked up): T2 sequence (looked up)

[4] = target: T4, Human CD16a V158 (FcγRIIIa V158) (human, UniProt P08637 17-208, biotinylated); assay: SPR; control sample
T4 construct: Bought recombinant receptor; also called hCD16aV; hFcγRIIIa V158

[5] = target: T5, Human CLEC12A-His (recombinant, K244 WT) (human, UniProt Q5QGZ9 65-265); assay: SPR 37C, two-state fit, average
T5 construct: Made in house (Dragonfly Tx); also called hCLEC12A; hCLEC12A-His; not shown: His tag
T5 sequence: T1 sequence

[6] = target: T5, Human CLEC12A-His (recombinant, K244 WT); assay: SPR, two-state fit (ka1); control sample
[7] = target: T5, Human CLEC12A-His (recombinant, K244 WT); assay: SPR, two-state fit (ka1); control sample; remark: listed apart in the source
Human CD64 (FcγRI) = target: T6, Human CD64 (FcγRI) (human, UniProt P12314 16-288, biotinylated); assay: SPR 25C, biotinylated hCD64 captured on CAP chip
T6 construct: Bought recombinant receptor; also called hFcγRI; Human FcγRI

[8] = target: T5, Human CLEC12A-His (recombinant, K244 WT); assay: SPR, two-state fit (kd1); after pH 8, 40C, 2 wks
[9] = target: T7, human CLEC12A expressed on cells (human, UniProt Q5QGZ9 1-265); assay: flow cytometry, HL60
T7 construct: Transduced isogenic cells or endogenous expression on AML cells; also called RMA-hCLEC12A; Ba/F3-hCLEC12A
T7 sequence: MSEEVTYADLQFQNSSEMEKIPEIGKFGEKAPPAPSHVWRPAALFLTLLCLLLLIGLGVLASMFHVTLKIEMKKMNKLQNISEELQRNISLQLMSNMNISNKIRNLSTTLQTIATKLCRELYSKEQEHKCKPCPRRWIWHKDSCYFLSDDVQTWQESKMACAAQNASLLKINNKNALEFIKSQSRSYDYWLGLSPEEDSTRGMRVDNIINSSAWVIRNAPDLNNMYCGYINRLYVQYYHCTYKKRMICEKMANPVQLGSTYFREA

[10] = target: T7, human CLEC12A expressed on cells; assay: flow cytometry, HL60; remark: listed apart in the source
[11] = target: T8, recombinant human CD32a H131 (human, UniProt P12318 36-218, limits assumed, biotinylated); assay: SPR 25C, steady state
T8 construct: also called FcγRIIa H131
T8 sequence (looked up): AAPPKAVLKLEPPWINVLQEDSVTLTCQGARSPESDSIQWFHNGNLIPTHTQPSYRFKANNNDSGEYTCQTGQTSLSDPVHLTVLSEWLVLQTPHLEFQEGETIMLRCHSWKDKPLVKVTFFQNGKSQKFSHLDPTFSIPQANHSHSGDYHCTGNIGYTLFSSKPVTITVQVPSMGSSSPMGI

[12] = target: T7, human CLEC12A expressed on cells; assay: flow cytometry, hCLEC12A+ Ba/F3
Human CLEC12A-His [13] = target: T9, Human CLEC12A-His (human, UniProt Q5QGZ9 65-265); assay: SPR; sample after 4 weeks at 40 C in HST pH 6.0
T9 construct: Recombinant soluble protein made in house; also called hCLEC12A-His; hCLEC12A; not shown: His tag
T9 sequence: T1 sequence

mFc-hNKG2D [14] = target: T10, mFc-hNKG2D (human, UniProt P26718 73-216); assay: SPR; sample after 4 weeks at 40 C in HST pH 6.0
T10 construct: extracellular domain; Recombinant mFc-tagged NKG2D dimer, made in house; also called human NKG2D; not shown: mouse Fc tag
T10 sequence (looked up): T2 sequence (looked up)

Human CD16a V158 = target: T11, Human CD16a V158 (human, UniProt P08637 17-208, biotinylated); assay: SPR; sample after 4 weeks at 40 C in HST pH 6.0
T11 construct: Bought recombinant receptor; also called hCD16a (V158); hFcγRIIIa V158
T11 sequence (P08637 17-208 F176V limits assumed): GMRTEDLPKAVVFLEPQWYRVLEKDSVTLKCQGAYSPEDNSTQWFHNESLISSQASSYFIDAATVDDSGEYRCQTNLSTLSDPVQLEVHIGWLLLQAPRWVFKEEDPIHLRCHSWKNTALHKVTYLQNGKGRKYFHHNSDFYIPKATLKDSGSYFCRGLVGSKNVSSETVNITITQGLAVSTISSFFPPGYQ

T6 sequence (P12314 16-288 limits assumed): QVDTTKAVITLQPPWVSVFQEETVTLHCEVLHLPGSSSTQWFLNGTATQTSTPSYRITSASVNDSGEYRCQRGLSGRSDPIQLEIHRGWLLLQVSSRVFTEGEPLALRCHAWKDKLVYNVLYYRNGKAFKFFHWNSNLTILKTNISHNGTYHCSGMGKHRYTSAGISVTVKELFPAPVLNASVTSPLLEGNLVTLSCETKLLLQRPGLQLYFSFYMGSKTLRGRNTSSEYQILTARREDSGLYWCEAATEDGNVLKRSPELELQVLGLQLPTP
T4 sequence (P08637 17-208 F176V limits assumed): as the sequence (P08637 17-208 F176V limits assumed) above

B1: F3'-1602 TriNKET (bispecific antibody, human IgG1, kappa)
chain: QLQLQESGPGLVKPSETLSLTCTVSGFSLTNYGLHWIRQPPGKCLEWIGVIWSGGKTDYNPSLKSRVTISKDTSKNQFSLKLSSVQAADTAVYYCAKYDYDDSLDYWGQGTLVTVSSGGGGSGGGGSGGGGSGGGGSDIQMTQSPSSLSASVGDRVTITCHASQNINFWLSWYQQKPGKAPKLLIYEASNLHTGVPSRFSGSGSGTRFTLTISSLQPEDIATYYCQQSHSYPLTFGCGTKLEIKGSDKTHTCPPCPAPELLGGPSVFLFPPKPKDTLMISRTPEVTCVVVDVSHEDPEVKFNWYVDGVEVHNAKTKPREEQYNSTYRVVSVLTVLHQDWLNGKEYKCKVSNKALPAPIEKTISKAKGQPREPRVYTLPPCRDELTKNQVSLTCLVKGFYPSDIAVEWESNGQPENNYKTTPPVLVSDGSFTLYSKLTVDKSRWQQGNVFSCSVMHEALHNHYTQKSLSLSPG
heavy: EVQLVESGGGLVKPGGSLRLSCAASGFTFSSYSMNWVRQAPGKGLEWVSSISSSSSYIYYADSVKGRFTISRDNAKNSLYLQMNSLRAEDTAVYYCARGAPIGAAAGWFDPWGQGTLVTVSSASTKGPSVFPLAPSSKSTSGGTAALGCLVKDYFPEPVTVSWNSGALTSGVHTFPAVLQSSGLYSLSSVVTVPSSSLGTQTYICNVNHKPSNTKVDKKVEPKSCDKTHTCPPCPAPELLGGPSVFLFPPKPKDTLMISRTPEVTCVVVDVSHEDPEVKFNWYVDGVEVHNAKTKPREEQYNSTYRVVSVLTVLHQDWLNGKEYKCKVSNKALPAPIEKTISKAKGQPREPQVCTLPPSRDELTENQVSLTCLVKGFYPSDIAVEWESNGQPENNYKTTPPVLDSDGSFFLYSWLTVDKSRWQQGNVFSCSVMHEALHNHYTQKSLSLSPG
light: DIQMTQSPSSVSASVGDRVTITCRASQGISSWLAWYQQKPGKAPKLLIYAASSLQSGVPSRFSGSGSGTDFTLTISSLQPEDFATYYCQQGVSFPRTFGGGTKVEIKRTVAAPSVFIFPPSDEQLKSGTASVVCLLNNFYPREAKVQWKVDNALQSGNSQESVTEQDSKDSTYSLSSTLTLSKADYEKHKVYACEVTHQGLSSPVTKSFNRGEC
notes: Trispecific F3' format: CLEC12A scFv-Fc paired with NKG2D Fab-Fc; Stressed and control samples of the stability studies are the same molecule; also called AB0237
- Kd (Human CLEC12A-His [1]): 0.98 nM
- koff (Human CLEC12A-His [1]): 0.000735 s⁻¹
- kon (Human CLEC12A-His [1]): 750000 M⁻¹ s⁻¹
- Kd (mFc-hNKG2D [2]): 762 nM
- koff (mFc-hNKG2D [2]): 0.0986 s⁻¹
- kon (mFc-hNKG2D [2]): 129000 M⁻¹ s⁻¹

B2: AB0089 TriNKET (bispecific antibody, human IgG1, kappa)
chain: B1 chain with S53V, K56A, K71V, Y98G, D101G, S103T, R207D, I220F
heavy: B1 heavy
light: B1 light
notes: F3' format heterodimer of three chains; human IgG1 Fc with EW-RVT and Y349C/S354C mutations; also called AB0089 Lot AB0089-002; CLEC12A TriNKET AB0089
- Kd [3]: 797 nM
- koff [3]: 0.135 s⁻¹
- kon [3]: 169000 M⁻¹ s⁻¹
- Kd [4]: 322 nM
- koff [4]: 0.0278 s⁻¹
- kon [4]: 86400 M⁻¹ s⁻¹
- Kd [5]: 0.74 nM
- kon [6]: 1.01e+07 M⁻¹ s⁻¹
- kon [7]: 1.04e+07 M⁻¹ s⁻¹
- Kd (Human CD64 (FcγRI)): 6.4 nM and 4.7 nM and 4.1 nM and 5.2 nM
- koff (Human CD64 (FcγRI)): 0.00018 s⁻¹ and 0.00022 s⁻¹ and 0.00019 s⁻¹ and 0.00024 s⁻¹
- kon (Human CD64 (FcγRI)): 44000 M⁻¹ s⁻¹ and 46000 M⁻¹ s⁻¹
- koff [8]: 0.049 s⁻¹

B3: F3'-1602 TriNKET (other)
chain: B1 chain
heavy: B1 heavy
light: B1 light
notes: CLEC12A scFv-Fc, NKG2D A49MI Fab-Fc, human IgG1 Fc; also called AB0237
- EC50 [9]: 2.2 nM
- EC50 [10]: 1.6 nM
- Max binding MFI [10]: 924 MFI
- Kd [11]: 900 nM and 800 nM
- EC50 [12]: 3.2 nM

B4: AB0192 TriNKET (other)
chain: EVQLVESGGGVVQPGGSLRLSCAASGFTFNAFGMHWVRQAPGKCLEWVAFISSGSTSIYYANTVKGRFTISRDNSKNTLYLQMNSLRAEDTAVYYCARDGYPTGGAMDYWGQGTSVTVSSGGGGSGGGGSGGGGSGGGGSDIQMTQSPSSLSASVGDRVTITCKASQDIYNYLSWFQQKPGKAPKPLIYRANILVSGVPSRFSGSGSGQDYTFTISSLQPEDIATYYCLQFDAFPFTFGCGTKLEIKGSDKTHTCPPCPAPELLGGPSVFLFPPKPKDTLMISRTPEVTCVVVDVSHEDPEVKFNWYVDGVEVHNAKTKPREEQYNSTYRVVSVLTVLHQDWLNGKEYKCKVSNKALPAPIEKTISKAKGQPREPRVYTLPPCRDELTKNQVSLTCLVKGFYPSDIAVEWESNGQPENNYKTTPPVLVSDGSFTLYSKLTVDKSRWQQGNVFSCSVMHEALHNHYTQKSLSLSPG
heavy: B1 heavy
light: B1 light
notes: the condition stands under assay; also called AB0192 Lot AB0192-005
- Kd (Human CLEC12A-His [13]): 1.81 nM
- koff (Human CLEC12A-His [13]): 0.0014 s⁻¹
- kon (Human CLEC12A-His [13]): 776000 M⁻¹ s⁻¹
- Kd (mFc-hNKG2D [14]): 602 nM
- koff (mFc-hNKG2D [14]): 0.127 s⁻¹
- kon (mFc-hNKG2D [14]): 211000 M⁻¹ s⁻¹
- Kd (Human CD16a V158): 194 nM
- koff (Human CD16a V158): 0.0201 s⁻¹
- kon (Human CD16a V158): 103000 M⁻¹ s⁻¹
